Experimental data reported in patent publication US20170096461A1 (IMMATICS BIOTECHNOLOGIES, published 2017).

Biological target: T1, HLA-A*02:01 (peptide-receptive MHC class I monomer after UV-ligand exchange) (human)
T1 construct: Monomers made with a UV-sensitive peptide that is cleaved by UV and exchanged for the test peptide; captured on streptavidin plates; also called MHC molecules
Test: UV-ligand exchange + anti-b2m ELISA; exchange yield grade: + >=10%, ++ >=20%, +++ >=50, ++++ >=75%
From the text: Candidate peptides for T cell based therapies according to the present invention were further tested for their MHC binding capacity (affinity). The individual peptide-MHC complexes were produced by UV-ligand exchange, where a UV-sensitive peptide is cleaved upon UV-irradiation, and exchanged with the peptide of interest as analyzed. Only peptide candidates that can effectively bind and stabilize the peptide-receptive MHC molecules prevent dissociation of the MHC complexes. To determine the yield of the exchange reaction, an ELISA was performed based on the detection of the light chain (β2m) of stabilized MHC complexes. The assay was performed as generally described in Rodenko et al. (Rodenko et al., 2006).
96 well MAXISorp plates (NUNC) were coated over night with 2 ug/ml streptavidin in PBS at room temperature, washed 4× and blocked for 1 h at 37° C. in 2% BSA containing blocking buffer. Refolded HLA-A*02:01/MLA-001 monomers served as standards, covering the range of 15-500 ng/ml. Peptide-MHC monomers of the UV-exchange reaction were diluted 100 fold in blocking buffer. Samples were incubated for 1 h at 37° C., washed four times, incubated with 2 ug/ml HRP conjugated anti-β2m for 1 h at 37° C., washed again and detected with TMB solution that is stopped with […]. Absorption was measured at 450 nm. Candidate peptides that show a high exchange yield (preferably higher than 50%, most preferred higher than 75%) are generally preferred for a generation and production of antibodies or fragments thereof, and/or T cell receptors or fragments thereof, as they show sufficient avidity to the MHC molecules and prevent dissociation of the MHC complexes.

| peptide exchange yield | Binder |
| --- | --- |
| 50 to 75% | LVFEGIMEV [peptide LVFEGIMEV (SEQ ID NO: 34)] |
| ≥ 75% | GLISSLNEI [peptide GLISSLNEI (SEQ ID NO: 38)] |
| 50 to 75% | LLPEKSWEI [peptide LLPEKSWEI (SEQ ID NO: 22)] |
| 50 to 75% | MLFEGLDLVSA [peptide MLFEGLDLVSA (SEQ ID NO: 12)] |
| 50 to 75% | TMEEMIFEV [peptide TMEEMIFEV (SEQ ID NO: 21)] |
| 50 to 75% | GLLEDERALQL [peptide GLLEDERALQL (SEQ ID NO: 42)] |
| ≥ 75% | RLLQDPVGV [peptide RLLQDPVGV (SEQ ID NO: 31)] |
| 50 to 75% | ILDEAGVKYFL [peptide ILDEAGVKYFL (SEQ ID NO: 51)] |
| ≥ 75% | AMYGTKLETI [peptide AMYGTKLETI (SEQ ID NO: 107)] |
| 50 to 75% | KLPSFLANV [peptide KLPSFLANV (SEQ ID NO: 118)] |
| 50 to 75% | ALWVAVPKA [peptide ALWVAVPKA (SEQ ID NO: 46)] |
| 50 to 75% | LLLPGVIKTV [peptide LLLPGVIKTV (SEQ ID NO: 112)] |
| 50 to 75% | GLDPTQFRV [peptide GLDPTQFRV (SEQ ID NO: 39)] |
| 50 to 75% | ALLPSDCLQEA [peptide ALLPSDCLQEA (SEQ ID NO: 115)] |
| ≥ 75% | ALLVRLQEV [peptide ALLVRLQEV (SEQ ID NO: 116)] |
| ≥ 75% | ILLDDQFQPKL [peptide ILLDDQFQPKL (SEQ ID NO: 108)] |
| 50 to 75% | SLAADIPRL [peptide SLAADIPRL (SEQ ID NO: 120)] |
| 50 to 75% | KLDKNPNQV [peptide KLDKNPNQV (SEQ ID NO: 123)] |
| 50 to 75% | GLLDPGMLVNI [peptide GLLDPGMLVNI (SEQ ID NO: 4)] |
| 50 to 75% | GLLEVQVEV [peptide GLLEVQVEV (SEQ ID NO: 40)] |
| 50 to 75% | SLITDLQTI [peptide SLITDLQTI (SEQ ID NO: 124)] |
| 50 to 75% | FLMEEVHMI [peptide FLMEEVHMI (SEQ ID NO: 24)] |

| peptide exchange yield | Binder |
| --- | --- |
| 50 to 75% | SLMLVTVEL [peptide SLMLVTVEL (SEQ ID NO: 17)] |
| 20 to 50% | SLSGEIILHSV [peptide SLSGEIILHSV (SEQ ID NO: 45)] |
| 50 to 75% | MLDEILLQL [peptide MLDEILLQL (SEQ ID NO: 20)] |
| 50 to 75% | ALTSLELEL [peptide ALTSLELEL (SEQ ID NO: 32)] |
| 50 to 75% | SLLTAISEV [peptide SLLTAISEV (SEQ ID NO: 15)] |
| 50 to 75% | VILDLPLVI [peptide VILDLPLVI (SEQ ID NO: 16)] |
| 50 to 75% | SLIGLDLSSV [peptide SLIGLDLSSV (SEQ ID NO: 48)] |
| ≥ 75% | KMPDDVWLV [peptide KMPDDVWLV (SEQ ID NO: 106)] |
| ≥ 75% | SLFERLVVL [peptide SLFERLVVL (SEQ ID NO: 109)] |
| ≥ 75% | KMLDEAVFQV [peptide KMLDEAVFQV (SEQ ID NO: 26)] |
| 50 to 75% | VLLTTAVEV [peptide VLLTTAVEV (SEQ ID NO: 19)] |
| 50 to 75% | KAYQELLATV [peptide KAYQELLATV (SEQ ID NO: 41)] |
| 50 to 75% | LLSEPSLLRTV [peptide LLSEPSLLRTV (SEQ ID NO: 125)] |
| 50 to 75% | ALGEISVSV [peptide ALGEISVSV (SEQ ID NO: 18)] |
| 50 to 75% | YMLEHVITL [peptide YMLEHVITL (SEQ ID NO: 121)] |
| 50 to 75% | ALLEPGGVLTI [peptide ALLEPGGVLTI (SEQ ID NO: 114)] |
| 20 to 50% | RLALNTPKV [peptide RLALNTPKV (SEQ ID NO: 49)] |
| 50 to 75% | KMLGLTVSL [peptide KMLGLTVSL (SEQ ID NO: 30)] |
| ≥ 75% | SLQSLIISV [peptide SLQSLIISV (SEQ ID NO: 5)] |
| ≥ 75% | SMYDKVLML [peptide SMYDKVLML (SEQ ID NO: 105)] |
| ≥ 75% | GLSETILAV [peptide GLSETILAV (SEQ ID NO: 25)] |
| 50 to 75% | FLPEAPAEL [peptide FLPEAPAEL (SEQ ID NO: 111)] |

| peptide exchange yield | Binder |
| --- | --- |
| 50 to 75% | FLTAFLVQI [peptide FLTAFLVQI (SEQ ID NO: 13)] |
| ≥ 75% | ILVSQLEQL [peptide ILVSQLEQL (SEQ ID NO: 28)] |
| 10 to 20% | AAASLIRLV [peptide AAASLIRLV (SEQ ID NO: 126)] |
| 50 to 75% | GLTETGLYRI [peptide GLTETGLYRI (SEQ ID NO: 110)] |
| ≥ 75% | HLFDIILTSV [peptide HLFDIILTSV (SEQ ID NO: 54)] |
| 50 to 75% | SLFYNELHYV [peptide SLFYNELHYV (SEQ ID NO: 37)] |
| 50 to 75% | RMDGAVTSV [peptide RMDGAVTSV (SEQ ID NO: 36)] |
| ≥ 75% | FMGDVFINV [peptide FMGDVFINV (SEQ ID NO: 35)] |
| 50 to 75% | AMLEEVNYI [peptide AMLEEVNYI (SEQ ID NO: 1)] |
| 50 to 75% | YLWSEVFSM [peptide YLWSEVFSM (SEQ ID NO: 43)] |
| ≥ 75% | LLSEEHITL [peptide LLSEEHITL (SEQ ID NO: 53)] |
| ≥ 75% | ALIVGIPSV [peptide ALIVGIPSV (SEQ ID NO: 44)] |
| 50 to 75% | ILIETKLVL [peptide ILIETKLVL (SEQ ID NO: 14)] |
| 50 to 75% | FLLSQIVAL [peptide FLLSQIVAL (SEQ ID NO: 50)] |
| ≥ 75% | FLLDSAPLNV [peptide FLLDSAPLNV (SEQ ID NO: 117)] |
| 50 to 75% | GLLEALLKI [peptide GLLEALLKI (SEQ ID NO: 47)] |
| 50 to 75% | YQIDTVINL [peptide YQIDTVINL (SEQ ID NO: 23)] |
| ≥ 75% | ILASFMLTGV [peptide ILASFMLTGV (SEQ ID NO: 52)] |
| 50 to 75% | SMMPDELLTSL [peptide SMMPDELLTSL (SEQ ID NO: 122)] |
| ≥ 75% | SLDIITITV [peptide SLDIITITV (SEQ ID NO: 27)] |
| 50 to 75% | VLAEIDPKQLV [peptide VLAEIDPKQLV (SEQ ID NO: 3)] |
| 50 to 75% | VMFNFPDQATV [peptide VMFNFPDQATV (SEQ ID NO: 2)] |
